# According to patent US20190015361A1 (Maxwell Biosciences, Inc., priority 2017, published 2019):
# System: Aβ40 (t=0 days), Aβ42 (t=0 days), Aβ42 (t=24 days)
# Assay: SPRi interaction with the three immobilized Aβ forms
# Assay type: binding, human
# Details: analyte flowed onto the SPRi chip for 10 minutes, all three Aβ forms
# Aβ40 (t=0 days), Aβ42 (t=0 days), Aβ42 (t=24 days), sequence (P05067 672-711 limits assumed): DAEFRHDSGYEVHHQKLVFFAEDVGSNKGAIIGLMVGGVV
molecule,measurement,value
"ovalbumin: non-correlated protein used as negative control sample in SPRi (Sigma-Aldrich, A5503) (protein) GSIGAASMEFCFDVFKELKVHHANENIFYCPIAIMSALAMVYLGAKDSTRTQINKVVRFDKLPGFGDSIEAQCGTSVNVHSSLRDILNQITKPNDVYSFSLASRLYAEERYPILPEYLQCVKELYRGGLEPINFQTAADQARELINSWVESQTNGIIRNVLQPSSVDSQTAMVLVNAIVFKGLWEKAFKDEDTQAMPFRVTEQESKPVQMMYQIGLFRVASMASEKMKILELPFASGTMSMLVLLPDEVSGLEQLESIINFEKLTEWTSSNVMEERKIKVYLPRMKMEEKYNLTSVLMAMGITDVFSSSANLSGISSAESLKISQAVHAAHAEINEAGREVVGSAEAGVDAASVSEEFRADHPFLFCIKHIATNAVLFFGRCVSP",SPRi interaction signal,did not produce interaction signals
